The text below walks through data of US9157067B2, “Pluripotent cells from mammalian late epiblast layer” (priority 2006, dated 2015).

One assay has as its system rat epiblast layers. Description: Derivation of EpiSC lines from rat epiblast layers. The assay is classed as cell-based. From the text:
The hypothesis that Activin and FGF signalling in pluripotency are conserved in mammalian development is supported by the ability of Activin/Nodal signalling to maintain long-term pluripotency of both human ESCs and mouse EpiSCs. As a further test of this hypothesis, we attempted to derive EpiSCs from rats, a species from which embryonic stem cell derivation has been problematic. Following the method we established in the mouse, epiblast layers were dissected from rat embryos at pre-gastrula stages (E 7.5-8.5) and grown on fibronectin-coated or FBS coated plates in CDM supplemented with Activin and FGF. […] Nevertheless, four EpiSC lines were derived out of 14 embryos of the Wistar strain and 1 EpiSC line was derived out of 20 embryos from the Sprague-Dawley strain using CDM supplemented with Activin alone.

Another assay deals with Rat EpiSCs. In words: Oct-4 immunostaining of rat EpiSCs grown in supplemented CDM. It is filed as cell-based. The conditions noted are these: after one week in CDM; 5B431542 10 uM; BMP4 10 ng/ml + 5B431542 10 uM; Activin 10 ng/ml + Noggin 100 ng/ml. How it is done: hESCs, mouse ESCs or EpiSCS were fixed for 20 minutes at 4° C. in 4% paraformaldehyde (PFA) and then washed three times in PBS. Cells were incubated for 20 minutes at room temperature in PBS containing 10% goat serum (Serotec) and subsequently incubated over night at 4° C. with primary antibody diluted in 1% goat serum in PBS as follows: SSEA-3 (1:100, Santa Cruz), SSAE-1 (1:25, gift from PW Andrews), Tra-1-60 (1:100, Santa CruZ), Oct-4 (1:100, SantaCruz), Sox2 (1:100, Abeam ab15830), Nanog (1:100, Abeam), Blirnpl (Abeam). Cells were then washed three times in PBS and incubated with fluorescein-Isothiocyanate-conjugated anti-mouse IgG or IgM (Sigma 1:200 in 1% goat serum in PBS) or rat IgM (Jackson laboratory 1:300 in goat serum in PBS) or rabbit IgG (Jackson laboratory 1:200 in donkey serum in PBS) for two hours at room temperature. Unbound secondary antibody was removed by 3 washes in PBS. Hoechst 33258 was added to the first wash (Sigma 1:10000).
Rat EpiSCs were grown in CDM supplemented in the presence of Activin (10 ng/ml), 5B431542 (10 uM), BMP4 10 ng/ml+5B431542 (10 uM) or Activin (10 ng/ml)+Noggin (IOOng/ml). After one week, the expression of the pluripotency marker Oct-4 was analysed using immunostaining. […] Similar results were obtained with mouse EpiSCs.

The mark [1] stands for this setting: Rat Sprague-Dawley, 8.5 d.p.c, 37° C., fibro.

B1: FGF4: growth factor added to rat epiblast cultures (protein, UniProt P08620 31-206, looked up)
Fibroblast growth factor 4: APTAPNGTLEAELERRWESLVALSLARLPVAAQPKEAAVQSGAGDYLLGIKRLRRLYCNVGIGFHLQALPDGRIGGAHADTRDSLLELSPVERGVVSIFGVASRFFVAMSSKGKLYGSPFFTDECTFKEILLPNNYNAYESYKYPGMFIALSKNGKTKKGNRVSPTMKVTHFLPRL
Take B1: in the assay on rat epiblast layers (addition to CDM supplemented with Activin), the “differentiation of early epiblast cultures” value is “induced differentiation”.

B2: Activin: activin agonist growth factor, dimeric polypeptide stimulating the Activin/Nodal pathway (protein, UniProt P08476 311-426, looked up)
Inhibin beta A chain: GLECDGKVNICCKKQFFVSFKDIGWNDWIIAPSGYHANYCEGECPSHIAGTSGSSLSFHSTVINHYRMRGHSPFANLKSCCVPTKLRPMSMLYYDDGQNIIKKDIQNMIVEECGCS
For the molecule B2, in the assay with rat epiblast layers (setting [1]), the Lines derived amounted to 1 and the Rate % came to 5%. The Rate % in the assay on rat epiblast layers (Rat Water (Wistar), 8.5 d.p.c, 38° C., FCS) was 35%.

B3: Noggin: natural BMP inhibitor (protein, UniProt Q13253 28-232, looked up)
Noggin: QHYLHIRPAPSDNLPLVDLIEHPDPIFDPKEKDLNETLLRSLLGGHYDPGFMATSPPEDRPGGGGGAAGGAEDLAELDQLLRQRPSGAMPSEIKGLEFSEGLAQGKKQRLSKKLRRKLQMWLWSQTFCPVLYAWNDLGSRFWPRYVKVGSCFSKRSCSVPEGMVCKPSKSVHLTVLRWRCQRRGGQRCGWIPIQYPIISECKCSC
B3: the “expression of the pluripotency marker Oct-4” value in the assay on Rat EpiSCs is given as “did not decrease expression of Oct-4”.
